Measured values as given in patent US11833164B2, “Methods of treating Fabry disease in patients having a mutation in the GLA gene” (Amicus Therapeutics, Inc., priority 2019, dated 2023).

B1: I317L (protein)
chain: MQLRNPELHLGCALALRFLALVSWDIPGARALDNGLARTPTMGWLHWERFMCNLDCQEEPDSCISEKLFMEMAELMVSEGWKDAGYEYLCIDDCWMAPQRDSEGRLQADPQRFPHGIRQLANYVHSKGLKLGIYADVGNKTCAGFPGSFGYYDIDAQTFADWGVDLLKFDGCYCDSLENLADGYKHMSLALNRTGRSIVYSCEWPLYMWPFQKPNYTEIRQYCNHWRNFADIDDSWKSIKSILDWTSFNQERIVDVAGPGGWNDPDMLVIGNFGLSWNQQVTQMALWAIMAAPLFMSNDLRHISPQAKALLQDKDVLAINQDPLGKQGYQLRQGDNFEVWERPLSGLAWAVAMINRQEIGGPRSYTIAVASLGKGVACNPACFITQLLPVKRKLGFYEWTSRLRSHINPTGTVLLQLENTMQMSLKDLL
B2: A318T (protein)
chain: MQLRNPELHLGCALALRFLALVSWDIPGARALDNGLARTPTMGWLHWERFMCNLDCQEEPDSCISEKLFMEMAELMVSEGWKDAGYEYLCIDDCWMAPQRDSEGRLQADPQRFPHGIRQLANYVHSKGLKLGIYADVGNKTCAGFPGSFGYYDIDAQTFADWGVDLLKFDGCYCDSLENLADGYKHMSLALNRTGRSIVYSCEWPLYMWPFQKPNYTEIRQYCNHWRNFADIDDSWKSIKSILDWTSFNQERIVDVAGPGGWNDPDMLVIGNFGLSWNQQVTQMALWAIMAAPLFMSNDLRHISPQAKALLQDKDVITINQDPLGKQGYQLRQGDNFEVWERPLSGLAWAVAMINRQEIGGPRSYTIAVASLGKGVACNPACFITQLLPVKRKLGFYEWTSRLRSHINPTGTVLLQLENTMQMSLKDLL
B3: A318D (protein)
chain: MQLRNPELHLGCALALRFLALVSWDIPGARALDNGLARTPTMGWLHWERFMCNLDCQEEPDSCISEKLFMEMAELMVSEGWKDAGYEYLCIDDCWMAPQRDSEGRLQADPQRFPHGIRQLANYVHSKGLKLGIYADVGNKTCAGFPGSFGYYDIDAQTFADWGVDLLKFDGCYCDSLENLADGYKHMSLALNRTGRSIVYSCEWPLYMWPFQKPNYTEIRQYCNHWRNFADIDDSWKSIKSILDWTSFNQERIVDVAGPGGWNDPDMLVIGNFGLSWNQQVTQMALWAIMAAPLFMSNDLRHISPQAKALLQDKDVIDINQDPLGKQGYQLRQGDNFEVWERPLSGLAWAVAMINRQEIGGPRSYTIAVASLGKGVACNPACFITQLLPVKRKLGFYEWTSRLRSHINPTGTVLLQLENTMQMSLKDLL
B4: I317V (protein)
chain: MQLRNPELHLGCALALRFLALVSWDIPGARALDNGLARTPTMGWLHWERFMCNLDCQEEPDSCISEKLFMEMAELMVSEGWKDAGYEYLCIDDCWMAPQRDSEGRLQADPQRFPHGIRQLANYVHSKGLKLGIYADVGNKTCAGFPGSFGYYDIDAQTFADWGVDLLKFDGCYCDSLENLADGYKHMSLALNRTGRSIVYSCEWPLYMWPFQKPNYTEIRQYCNHWRNFADIDDSWKSIKSILDWTSFNQERIVDVAGPGGWNDPDMLVIGNFGLSWNQQVTQMALWAIMAAPLFMSNDLRHISPQAKALLQDKDVVAINQDPLGKQGYQLRQGDNFEVWERPLSGLAWAVAMINRQEIGGPRSYTIAVASLGKGVACNPACFITQLLPVKRKLGFYEWTSRLRSHINPTGTVLLQLENTMQMSLKDLL
B5: A318V (protein)
chain: MQLRNPELHLGCALALRFLALVSWDIPGARALDNGLARTPTMGWLHWERFMCNLDCQEEPDSCISEKLFMEMAELMVSEGWKDAGYEYLCIDDCWMAPQRDSEGRLQADPQRFPHGIRQLANYVHSKGLKLGIYADVGNKTCAGFPGSFGYYDIDAQTFADWGVDLLKFDGCYCDSLENLADGYKHMSLALNRTGRSIVYSCEWPLYMWPFQKPNYTEIRQYCNHWRNFADIDDSWKSIKSILDWTSFNQERIVDVAGPGGWNDPDMLVIGNFGLSWNQQVTQMALWAIMAAPLFMSNDLRHISPQAKALLQDKDVIVINQDPLGKQGYQLRQGDNFEVWERPLSGLAWAVAMINRQEIGGPRSYTIAVASLGKGVACNPACFITQLLPVKRKLGFYEWTSRLRSHINPTGTVLLQLENTMQMSLKDLL
B6: I317M (protein)
chain: MQLRNPELHLGCALALRFLALVSWDIPGARALDNGLARTPTMGWLHWERFMCNLDCQEEPDSCISEKLFMEMAELMVSEGWKDAGYEYLCIDDCWMAPQRDSEGRLQADPQRFPHGIRQLANYVHSKGLKLGIYADVGNKTCAGFPGSFGYYDIDAQTFADWGVDLLKFDGCYCDSLENLADGYKHMSLALNRTGRSIVYSCEWPLYMWPFQKPNYTEIRQYCNHWRNFADIDDSWKSIKSILDWTSFNQERIVDVAGPGGWNDPDMLVIGNFGLSWNQQVTQMALWAIMAAPLFMSNDLRHISPQAKALLQDKDVMAINQDPLGKQGYQLRQGDNFEVWERPLSGLAWAVAMINRQEIGGPRSYTIAVASLGKGVACNPACFITQLLPVKRKLGFYEWTSRLRSHINPTGTVLLQLENTMQMSLKDLL
B7: A318P (protein)
chain: MQLRNPELHLGCALALRFLALVSWDIPGARALDNGLARTPTMGWLHWERFMCNLDCQEEPDSCISEKLFMEMAELMVSEGWKDAGYEYLCIDDCWMAPQRDSEGRLQADPQRFPHGIRQLANYVHSKGLKLGIYADVGNKTCAGFPGSFGYYDIDAQTFADWGVDLLKFDGCYCDSLENLADGYKHMSLALNRTGRSIVYSCEWPLYMWPFQKPNYTEIRQYCNHWRNFADIDDSWKSIKSILDWTSFNQERIVDVAGPGGWNDPDMLVIGNFGLSWNQQVTQMALWAIMAAPLFMSNDLRHISPQAKALLQDKDVIPINQDPLGKQGYQLRQGDNFEVWERPLSGLAWAVAMINRQEIGGPRSYTIAVASLGKGVACNPACFITQLLPVKRKLGFYEWTSRLRSHINPTGTVLLQLENTMQMSLKDLL

System: mutant form of α-Gal A expressed in HEK-293 cells
Assay: HEK assay (GLP HEK / Migalastat Amenability Assay): α-Gal A activity in lysates of transiently transfected HEK-293 cells incubated with or without 10 μM migalastat
Type: cell-based, human
Details: for Absolute increase (% WT) / Relative increase: 10 μM migalastat versus baseline; for Baseline α-Gal A activity (% WT): absence of migalastat; for Baseline α-Gal A activity (% WT) / 10 μM migalastat α-Gal A activity (% WT): percentage of baseline wild-type α-Gal A activity; for Baseline α-Gal A activity (% WT) / Baseline α-Gal A activity / 10 μM migalastat α-Gal A activity / 10 μM migalastat α-Gal A activity (% WT): mean ± SEM; for Baseline α-Gal A activity / 10 μM migalastat α-Gal A activity: lysates of HEK-293 cells transiently transfected with the mutant form; for Baseline α-Gal A activity: incubated 5 days in absence of migalastat; for 10 μM migalastat α-Gal A activity: incubated 5 days with 10 μM migalastat; for 10 μM migalastat α-Gal A activity (% WT): with 10 μM migalastat, 5 days
Outline: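 Activity reported as 4-MU released (nmol/mg/hr), mean±SEM, from lysates of transiently transfected HEK-293 cells expressing mutant α-Gal A, cultured with or without 10 μM migalastat.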

Molecule | Absolute increase (% WT) | Relative increase | Baseline α-Gal A activity (% WT) | Baseline α-Gal A activity | 10 μM migalastat α-Gal A activity | 10 μM migalastat α-Gal A activity (% WT)
B1 | 16.5 % WT | 1.3 | 54.4 ± 4.9 % WT | 14780 ± 1222 nmol/mg/h | 18770 ± 1141 nmol/mg/h | 70.9 ± 5.6 % WT
B2 | 17.7 % WT | 1.3 | 45.2 ± 2.8 % WT | 16954 ± 1483 nmol/mg/h | 22296 ± 1232 nmol/mg/h | 62.9 ± 4.6 % WT
B3 | 16.9 % WT | 1.4 | 42.5 ± 3.6 % WT | 15357 ± 1499 nmol/mg/h | 20838 ± 1817 nmol/mg/h | 59.4 ± 5.3 % WT
B4 | 18.6 % WT | 1.3 | 55 ± 6.1 % WT | 14885 ± 1495 nmol/mg/h | 19927 ± 1565 nmol/mg/h | 73.6 ± 5.5 % WT
B5 | 16.5 % WT | 1.4 | 37.9 ± 2.1 % WT | 14603 ± 1377 nmol/mg/h | 19658 ± 1108 nmol/mg/h | 54.4 ± 3.5 % WT
B6 | 10.2 % WT | 11.7 | 1 ± 0.1 % WT | 340 ± 29 nmol/mg/h | 3988 ± 177 nmol/mg/h | 11.2 ± 0.8 % WT
B7 | 6.5 % WT | 5.3 | 1.5 ± 0.2 % WT | 526 ± 42 nmol/mg/h | 2799 ± 174 nmol/mg/h | 8 ± 0.8 % WT
